Assay results reported in patent US20050025760A1 (KEIO UNIVERSITY, published 2005).

Key:
[1] = target: T1, human Dsg3 in human skin or mucosa (human, UniProt P32926 50-999); experiment: indirect immunofluorescence on human skin sections
T1 construct: whole, on cells; also called human tissues
T1 sequence (looked up): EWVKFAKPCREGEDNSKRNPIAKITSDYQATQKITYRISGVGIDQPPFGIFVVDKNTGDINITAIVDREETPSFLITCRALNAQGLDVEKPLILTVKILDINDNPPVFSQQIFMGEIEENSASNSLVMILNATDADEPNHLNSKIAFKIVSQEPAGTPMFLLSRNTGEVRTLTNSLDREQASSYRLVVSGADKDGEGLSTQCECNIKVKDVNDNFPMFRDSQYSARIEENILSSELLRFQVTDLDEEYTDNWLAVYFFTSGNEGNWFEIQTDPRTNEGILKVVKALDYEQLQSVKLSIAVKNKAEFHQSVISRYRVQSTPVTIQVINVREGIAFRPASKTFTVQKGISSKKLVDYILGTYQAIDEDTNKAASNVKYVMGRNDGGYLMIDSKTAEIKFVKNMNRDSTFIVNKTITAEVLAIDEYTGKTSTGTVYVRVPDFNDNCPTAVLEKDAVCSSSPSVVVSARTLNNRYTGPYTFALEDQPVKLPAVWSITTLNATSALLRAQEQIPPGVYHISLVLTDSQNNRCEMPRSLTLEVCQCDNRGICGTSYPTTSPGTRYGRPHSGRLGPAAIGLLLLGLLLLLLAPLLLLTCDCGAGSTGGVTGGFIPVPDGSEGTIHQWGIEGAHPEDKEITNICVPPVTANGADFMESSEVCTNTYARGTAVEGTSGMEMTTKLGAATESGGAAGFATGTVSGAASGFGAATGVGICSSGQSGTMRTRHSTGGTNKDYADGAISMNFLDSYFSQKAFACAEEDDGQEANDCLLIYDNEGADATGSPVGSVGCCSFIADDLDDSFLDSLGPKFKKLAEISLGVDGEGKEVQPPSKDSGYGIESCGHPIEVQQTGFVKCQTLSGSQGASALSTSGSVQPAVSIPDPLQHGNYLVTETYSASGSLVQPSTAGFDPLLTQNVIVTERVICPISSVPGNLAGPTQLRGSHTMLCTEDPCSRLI
Procedure: A-5 (Indirect Immunofluorescence) C57B1/6J mouse hard palate, liver and human skin were embedded with OCT compound (SAKURA, USA), then froze and sectioned into 5 μm thickness, and constructed a substrate. After each of hybridoma culture supernatants were reacted for 1 hour at room temperature, they were washed with PBS (3 times), and reacted with ×100 diluted FITC labeled goat anti-mouse IgG (DAKO A/S, Glostrup, Denmark) for 1 hour at room temperature, they were washed with PBS (3 times), and microscopic examination was conducted using a fluorescence microscope.

[2] = target: T2, inactivated Dsg3 protein having a pro-sequence (mouse, UniProt O35902 24-617, limits assumed); experiment: immunoprecipitation and immunoblotting of recombinant Dsg3 (FIG. 7b)
T2 construct: the sentence on immunoblotting itself says only 'Dsg3'; also called protein with large molecular weight; not shown: His tag
T2 sequence (looked up): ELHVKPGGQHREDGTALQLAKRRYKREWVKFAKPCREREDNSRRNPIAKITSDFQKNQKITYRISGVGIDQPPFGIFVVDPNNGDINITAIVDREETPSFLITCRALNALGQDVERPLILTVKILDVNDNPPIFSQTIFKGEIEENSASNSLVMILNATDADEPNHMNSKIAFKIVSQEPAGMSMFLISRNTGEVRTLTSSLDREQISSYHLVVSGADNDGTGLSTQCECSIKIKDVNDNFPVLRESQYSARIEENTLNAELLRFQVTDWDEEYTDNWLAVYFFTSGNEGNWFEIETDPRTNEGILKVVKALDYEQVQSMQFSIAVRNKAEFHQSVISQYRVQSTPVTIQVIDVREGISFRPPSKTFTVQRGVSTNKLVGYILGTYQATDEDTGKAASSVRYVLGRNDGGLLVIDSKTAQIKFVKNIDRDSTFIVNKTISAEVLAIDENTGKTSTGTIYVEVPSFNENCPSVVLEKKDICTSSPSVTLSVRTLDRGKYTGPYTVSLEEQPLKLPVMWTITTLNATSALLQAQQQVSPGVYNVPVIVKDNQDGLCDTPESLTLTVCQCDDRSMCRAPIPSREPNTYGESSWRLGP
Procedure: Then 10 μl of protein G (Protein G sepharose 4 fast flow: Amersham Pharmacia Biotech, Buckinghamshire, England) was added and reacted overnight at […]. Centrifugation was conducted after the reaction, and 50 μl of SDS was added to the precipitate and boiled for 2 minutes. Each sample was subjected to electrophoresis with a 7.5% uniform gel plate for electrophoresis (multigel 7.5: Daiichi Pure Chemicals, Tokyo, Japan), transcribed to PVDF membrane, then blocked. Further, 100-fold diluted anti-6X histidine antibody (R&D systems, Inc. Minn., USA) was reacted for 1 hour at room temperature, washed (3 times) in TBS (Tris buffered saline), then 1000-fold diluted alkaline phosphatase-goat anti-mouse IgG (Zymed, San Francisco, Calif., USA) was reacted for 1 hour at room temperature, washed (3 times) in TBS, then developed.
To characterize the epitopes of monoclonal antibodes such as AK23 and the like, it was first determined whether the binding to Dsg3 of the antibodies is calcium-dependent or not. Recombinant mouse Dsg3-His was treated with or without EDTA, and then subjected to immunoprecipitation with the AK antibodies. EDTA treatment abolished the reactivity of AK19 and AK23 antibodies, but not the reactivity of the other AK antibodies (Table 3, FIG. 7a). […]

B1: anti-Dsg3 monoclonal antibody AK23 (antibody, mouse IgG1, V domains shown)
VH: QVQLQQSGTELVKPGASVKLSCKSSGYTFTSYWINWVKQRPGQGLEWIGNINPSNGGINYNEKFKSKATLTVDKSSSTAYMQLKSLTSEDSAVYYCARGGYDGYPWGQGTTVTVS
VL: DIQMTQSPKFLLVSAGDRVTITCKASQSVSYDVAWYQQKPGQSPKLLISYASNRYTGVPDRFTGSGYGSDFTFTISTVQTEDLAVYFCQQDYSSPWTFGGGTKLELKR
notes: Mouse IgG1 kappa hybridoma antibody
Question: Does B1 bind [1]?
Answer: binds

Question: Does B1 bind [2]?
Answer: no binding
